target: T1, HLA-A*0201 (recombinant, refolded with peptide for tetramer production) (human); test: reconstitution of HLA-A*0201 tetramers with peptide
T1 construct: Monomers were biotinylated; also called HLA-A2

binding result	Binder
binds	ALLNIKVKL (MHC class I ligand eluted from renal cell carcinoma tissue and identified by mass spectrometry; also called keratin 18 peptide; keratin 18-peptide) [ALLNIKVKL derived from keratin 18]
binds	YVDPVITSI (MHC class I ligand eluted from renal cell carcinoma tissue; also called met-proto-oncogene peptide) [YVDPVITSI derived from met proto-oncogene]
binds	SVASTITGV (MHC class I ligand eluted from renal cell carcinoma tissue; also called adipophilin peptide; ADFP peptide) [SVASTITGV from adipophilin]

— patent US20150044246A1 (IMMATICS BIOTECHNOLOGIES, published 2015)
